Experiments:
C57Bl/6 mice = assay: Depilation-induced hair cycle in C57Bl/6 mice, daily topical treatment; format: in vivo, mouse; details: day eight of the hair cycle (FIG. 10), PBS-liposome vehicle
From the text: (§1) C57BI/6 or C3H mice (male and female) were obtained from Charles River (Kingston, NY), at 8-10 weeks of age and were in the resting (telogen) phase of their respective hair cycle. Hair growth was induced by wax depilation (plucking) of each respective animal's back fur according to the procedure set forth in Stenn, et al., “Glucocorticoid Effect on Hair Growth Initiation: A Reconsideration,” 6 Skin Pharmacol., 125-134 (1993). In C57Bl/6 and C3H mice, 8-10 weeks old, the growth phase (anagen) starts synchronously in all hair follicles at the time of depilation.
Since the murine hair cycle varies not only between strains, but also amongst individual animals, the status of the hair cycle was analyzed in each animal on study. A 2 cm by 1 cm skin sample was isolated from each mouse with scissors, fixed with a 10% buffered formalin solution having a pH of about 6.9-7.1 at 25° C. (Stephens Scientific), and then formed into a paraffin block according to well-known procedures. The block was then microtomed, and sections were stained with H&E or Fontana-Mason stain. Sections were examined histologically in order to verify the phase of the hair cycle, the size of the hair follicle and hair shaft and the level of hair pigmentation, using procedures well known in the art. Hair length was assessed visually, and by using a low magnification (×8) dissecting microscope. […]

C3H mice = assay: Depilation-induced hair cycle in C3H mice, daily topical treatment; format: in vivo, mouse; details: for hair follicle histology: 1%, day seven of the hair cycle; for hair follicle histology / effect on hair growth and pigmentation: PBS-liposome vehicle; for effect on hair growth and pigmentation: high concentrations; for hair growth, follicle and shaft size, visual observation throughout the hair cycle: in PBS-liposome vehicle (FIG. 9)
From the text: as §1
Since the murine hair cycle varies not only between strains, but also amongst individual animals, the status of the hair cycle was analyzed in each animal on study. A 2 cm by 1 cm skin sample was isolated from each mouse with scissors, fixed with a 10% buffered formalin solution having a pH of about 6.9-7.1 at 25° C. (Stephens Scientific), and then formed into a paraffin block according to well-known procedures. The block was then microtomed, and sections were stained with H&E or Fontana-Mason stain. Sections were examined histologically in order to verify the phase of the hair cycle, the size of the hair follicle and hair shaft and the level of hair pigmentation, using procedures well known in the art. Hair length was assessed visually, and by using a low magnification (×8) dissecting microscope.
In order to verify that the effect of soymilk on hair growth is not specific to C57Bl/6 mice, we repeated the experiment described in Example 4 using the brown haired (Agouti) C3H mice. The results of these experiments were similar both visually and histologically.

trypsin = assay: Enzchek protease digestion fluorescent assay with trypsin; format: biochemical; details: 100 units of trypsin; increasing concentrations / serial dilutions
Procedure: In order to support the hypothesis that STI and BBI in soymilk are involved in the hair growth effects described above, we tested soymilk for its serine protease inhibitory activity. An enzymatic assay was performed using “Enzchek”, a protease digestion fluorescent test system made by Molecular Probes of Eugene, Oreg. Using 100 units of trypsin (from Sigma chemicals, St. Louis Mo.) the test system produced fluorescence reading of about 1100 units. This reaction was inhibited with increasing concentrations of STI, as expected from a known trypsin inhibitor.

B1: BBI: soybean-derived serine protease inhibitor protein from Sigma-Aldrich, used in PBS-liposome vehicle (protein, UniProt P01055 40-110, looked up)
Bowman-Birk type proteinase …: DDESSKPCCDQCACTKSNPPQCRCSDMRLNSCHSACKSCICALSYPAQCFCVDITDFCYEPCKPSEDDKEN
hair follicle histology (C57Bl/6 mice): smaller and less pigmented follicles | hair follicle histology (C3H mice): reduce hair follicle and hair shaft size and hair shaft pigmentation | effect on hair growth and pigmentation (C3H mice): substantial | hair growth, follicle and shaft size, visual observation throughout the hair cycle (C3H mice): could delay hair growth and reduce hair follicle and hair shaft size

B2: STI: soybean-derived serine protease inhibitor protein from Sigma-Aldrich, used in PBS-liposome vehicle (protein, UniProt P01070 25-205, looked up)
Trypsin inhibitor A: DFVLDNEGNPLENGGTYYILSDITAFGGIRAAPTGNERCPLTVVQSRNELDKGIGTIISSPYRIRFIAEGHPLSLKFDSFAVIMLCVGIPTEWSVVEDLPEGPAVKIGENKDAMDGWFRLERVSDDEFNNYKLVFCPQQAEDDKCGDIGISIDHDDGTRRLVVSKNKPLVVQFQKLDKESL
hair follicle histology (C57Bl/6 mice): smaller and less pigmented follicles | hair follicle histology (C3H mice): reduce hair follicle and hair shaft size and hair shaft pigmentation | effect on hair growth and pigmentation (C3H mice): substantial | hair growth, follicle and shaft size, visual observation throughout the hair cycle (C3H mice): could delay hair growth and reduce hair follicle and hair shaft size | inhibition of trypsin reaction (trypsin): inhibited
